Biological target: thyrotropin receptor (TSHR) (UniProt P16473)
Assay: cell-based or functional assay

UniProt P16473, sequence (P16473 21-764 limits assumed): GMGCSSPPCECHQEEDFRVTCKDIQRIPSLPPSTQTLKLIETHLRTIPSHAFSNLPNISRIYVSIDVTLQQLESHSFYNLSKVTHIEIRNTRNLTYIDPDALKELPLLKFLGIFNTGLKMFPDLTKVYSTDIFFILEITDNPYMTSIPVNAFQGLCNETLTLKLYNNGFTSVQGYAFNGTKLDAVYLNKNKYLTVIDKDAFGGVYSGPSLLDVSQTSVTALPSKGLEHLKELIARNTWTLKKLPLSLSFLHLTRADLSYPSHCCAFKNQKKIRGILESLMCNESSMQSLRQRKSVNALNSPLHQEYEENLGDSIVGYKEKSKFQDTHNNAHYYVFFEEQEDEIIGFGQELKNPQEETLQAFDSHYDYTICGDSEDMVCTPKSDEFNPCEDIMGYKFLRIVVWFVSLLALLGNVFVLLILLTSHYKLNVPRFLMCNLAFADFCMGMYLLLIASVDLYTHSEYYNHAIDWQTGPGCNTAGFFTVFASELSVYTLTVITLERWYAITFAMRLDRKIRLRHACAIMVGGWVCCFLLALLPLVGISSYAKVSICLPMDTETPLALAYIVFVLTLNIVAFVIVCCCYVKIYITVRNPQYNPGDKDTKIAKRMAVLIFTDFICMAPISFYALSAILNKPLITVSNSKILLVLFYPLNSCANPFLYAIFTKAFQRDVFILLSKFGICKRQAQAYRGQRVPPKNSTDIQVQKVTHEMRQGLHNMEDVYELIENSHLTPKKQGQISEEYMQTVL

EC50 of cAMP induction (RLU, HitHunter cAMP XS+ luminescence) in CHO-K1 cells expressing TSHR, relative to the control group (Thyrogen): 99%
Substance: recombinant human thyroid stimulating hormone (rhTSH) produced and purified by the method of the invention (from UniProt P01215 25-116; P01222 21-138) (ligand)

Source: patent US20190062396A1
